In PMC7213981, “Enhancer architecture sensitizes cell specific responses to Notch gene dose via a bind and discard mechanism”:

Key:
[1] = target: T1, RBPJ (CSL);N1ICD;MAML1 (mouse;mouse;human, UniProt P31266;Q01705;Q92585 53-474;1744-2113;1-280, ||); experiment: EMSA; both probes in the same reaction; 1 uM NICD/MAML; cooperative, both sites preferentially filled; Native PAGE EMSA, LICOR Odyssey CLx imaging; equal amounts of both probes in one reaction; buffer, salt, pH and temperature not stated (as in Uhl 2010, 2016); details: protein: recombinant;recombinant;recombinant; copies: 1;1;1; label: 5' IRDye-800 on the complementary strand (primer S25)
[2] = target: T2, Su(H);NICD;Mastermind (Mam) (Drosophila melanogaster;Drosophila …, UniProt P28159;P07207;P21519 98-523;1763-2412;87-307, ||); experiment: EMSA; both probes in the same reaction; 1 uM NICD/Mam; cooperative, less 2NCM complex than the mouse proteins; Native PAGE EMSA, LICOR Odyssey CLx imaging; equal amounts of both probes in one reaction; buffer, salt, pH and temperature not stated (as in Uhl 2010, 2016); details: protein: recombinant;recombinant;recombinant; copies: 1;1;1; label: 5' IRDye-800 on the complementary strand (primer S25)
[3] = target: T3, Su(H) (Drosophila melanogaster, UniProt P28159 98-523); experiment: EMSA; both probes in the same reaction; Su(H) 10-320 nM, no co-activators; additive, slightly lower affinity than 2xCSL; Native PAGE EMSA, LICOR Odyssey CLx imaging; equal amounts of both probes in one reaction; buffer, salt, pH and temperature not stated (as in Uhl 2010, 2016); details: protein: recombinant; label: 5' IRDye-800 on the complementary strand (primer S25)
[4] = target: T4, RBPJ (CSL) (mouse, UniProt P31266 53-474); experiment: EMSA; both probes in the same reaction; RBPJ 10-320 nM, no co-activators; additive, slightly lower affinity than 2xCSL; Native PAGE EMSA, LICOR Odyssey CLx imaging; equal amounts of both probes in one reaction; buffer, salt, pH and temperature not stated (as in Uhl 2010, 2016); details: protein: recombinant; label: 5' IRDye-800 on the complementary strand (primer S25)
[5] = target: T1, RBPJ (CSL);N1ICD;MAML1; experiment: EMSA; both probes in the same reaction; 1 uM NICD/MAML; additive, not cooperative, less preferred than 1xSPS; Native PAGE EMSA, LICOR Odyssey CLx imaging; equal amounts of both probes in one reaction; buffer, salt, pH and temperature not stated (as in Uhl 2010, 2016); details: protein: recombinant;recombinant;recombinant; copies: 1;1;1; label: 5' IRDye-700 on the complementary strand (primer S25)
[6] = target: T4, RBPJ (CSL); experiment: EMSA; both probes in the same reaction; RBPJ 10-320 nM, no co-activators; additive, slightly higher affinity than 1xSPS; Native PAGE EMSA, LICOR Odyssey CLx imaging; equal amounts of both probes in one reaction; buffer, salt, pH and temperature not stated (as in Uhl 2010, 2016); details: protein: recombinant; label: 5' IRDye-700 on the complementary strand (primer S25)
[7] = target: T2, Su(H);NICD;Mastermind (Mam); experiment: EMSA; both probes in the same reaction; 1 uM NICD/Mam; additive, not cooperative, less preferred than 1xSPS; Native PAGE EMSA, LICOR Odyssey CLx imaging; equal amounts of both probes in one reaction; buffer, salt, pH and temperature not stated (as in Uhl 2010, 2016); details: protein: recombinant;recombinant;recombinant; copies: 1;1;1; label: 5' IRDye-700 on the complementary strand (primer S25)
[8] = target: T3, Su(H); experiment: EMSA; both probes in the same reaction; Su(H) 10-320 nM, no co-activators; additive, slightly higher affinity than 1xSPS; Native PAGE EMSA, LICOR Odyssey CLx imaging; equal amounts of both probes in one reaction; buffer, salt, pH and temperature not stated (as in Uhl 2010, 2016); details: protein: recombinant; label: 5' IRDye-700 on the complementary strand (primer S25)

Measured: binding result

T4 sequence (P31266 53-474): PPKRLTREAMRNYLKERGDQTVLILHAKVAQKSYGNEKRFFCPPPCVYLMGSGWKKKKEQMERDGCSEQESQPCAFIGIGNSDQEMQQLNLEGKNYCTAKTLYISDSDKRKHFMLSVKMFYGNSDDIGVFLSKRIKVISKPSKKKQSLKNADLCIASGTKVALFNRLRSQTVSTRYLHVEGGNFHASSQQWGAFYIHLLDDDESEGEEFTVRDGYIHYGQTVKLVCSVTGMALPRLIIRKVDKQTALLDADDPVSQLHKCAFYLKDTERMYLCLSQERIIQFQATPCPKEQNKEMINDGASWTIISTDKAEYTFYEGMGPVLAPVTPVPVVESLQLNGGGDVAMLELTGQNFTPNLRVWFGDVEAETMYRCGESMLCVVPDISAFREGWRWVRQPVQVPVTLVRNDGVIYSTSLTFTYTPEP
T1 sequence (P31266 53-474, chain 1 of 3): as the sequence (P31266 53-474) above
T1 sequence (Q01705 1744-2113, chain 2 of 3): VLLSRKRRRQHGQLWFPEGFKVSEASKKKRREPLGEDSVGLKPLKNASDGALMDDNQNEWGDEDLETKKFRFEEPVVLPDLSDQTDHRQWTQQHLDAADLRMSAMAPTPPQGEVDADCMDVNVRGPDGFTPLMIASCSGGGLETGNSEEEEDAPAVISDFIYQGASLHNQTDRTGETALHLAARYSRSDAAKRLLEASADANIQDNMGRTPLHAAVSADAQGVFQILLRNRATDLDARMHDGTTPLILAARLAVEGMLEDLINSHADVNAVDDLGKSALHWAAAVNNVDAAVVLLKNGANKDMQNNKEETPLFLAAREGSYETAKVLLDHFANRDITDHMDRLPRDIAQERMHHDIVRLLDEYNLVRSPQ
T1 sequence (Q92585 1-280, chain 3 of 3): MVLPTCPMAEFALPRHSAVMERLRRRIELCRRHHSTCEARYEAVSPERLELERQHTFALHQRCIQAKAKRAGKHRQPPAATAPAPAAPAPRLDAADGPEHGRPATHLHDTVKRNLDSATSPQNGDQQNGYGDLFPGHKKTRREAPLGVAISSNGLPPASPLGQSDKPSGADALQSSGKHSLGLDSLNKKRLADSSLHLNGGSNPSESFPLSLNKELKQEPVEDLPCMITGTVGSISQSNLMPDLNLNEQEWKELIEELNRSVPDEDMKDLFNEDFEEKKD
T2 sequence (P28159 98-523, chain 1 of 3): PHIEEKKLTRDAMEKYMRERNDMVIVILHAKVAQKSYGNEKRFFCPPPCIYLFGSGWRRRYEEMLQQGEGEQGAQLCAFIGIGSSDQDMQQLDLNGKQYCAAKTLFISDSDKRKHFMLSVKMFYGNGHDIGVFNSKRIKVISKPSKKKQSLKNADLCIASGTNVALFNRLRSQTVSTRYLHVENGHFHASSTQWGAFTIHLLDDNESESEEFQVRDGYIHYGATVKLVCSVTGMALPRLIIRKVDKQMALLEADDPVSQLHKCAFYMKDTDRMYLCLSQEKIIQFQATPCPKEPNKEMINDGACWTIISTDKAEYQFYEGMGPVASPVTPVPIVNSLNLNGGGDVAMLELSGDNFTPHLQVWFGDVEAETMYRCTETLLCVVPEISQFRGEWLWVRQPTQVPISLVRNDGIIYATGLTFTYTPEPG
T2 sequence (P07207 1763-2412, chain 2 of 3): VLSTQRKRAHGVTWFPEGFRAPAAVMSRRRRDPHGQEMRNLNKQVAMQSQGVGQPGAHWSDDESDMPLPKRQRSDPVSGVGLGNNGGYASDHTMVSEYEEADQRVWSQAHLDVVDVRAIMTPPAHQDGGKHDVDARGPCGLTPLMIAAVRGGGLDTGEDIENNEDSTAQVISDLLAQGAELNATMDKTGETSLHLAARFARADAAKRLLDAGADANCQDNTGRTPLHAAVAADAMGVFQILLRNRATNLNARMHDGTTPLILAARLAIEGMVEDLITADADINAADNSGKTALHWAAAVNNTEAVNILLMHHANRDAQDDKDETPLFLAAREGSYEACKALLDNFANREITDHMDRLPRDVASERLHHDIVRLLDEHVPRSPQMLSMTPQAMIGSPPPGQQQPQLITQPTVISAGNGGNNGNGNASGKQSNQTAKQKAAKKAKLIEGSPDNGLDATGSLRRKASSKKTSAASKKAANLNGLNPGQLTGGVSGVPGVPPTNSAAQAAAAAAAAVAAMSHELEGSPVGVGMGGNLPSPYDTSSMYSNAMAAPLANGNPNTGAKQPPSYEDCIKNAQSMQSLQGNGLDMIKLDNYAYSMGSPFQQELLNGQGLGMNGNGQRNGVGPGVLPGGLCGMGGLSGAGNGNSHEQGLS
T2 sequence (P21519 87-307, chain 3 of 3): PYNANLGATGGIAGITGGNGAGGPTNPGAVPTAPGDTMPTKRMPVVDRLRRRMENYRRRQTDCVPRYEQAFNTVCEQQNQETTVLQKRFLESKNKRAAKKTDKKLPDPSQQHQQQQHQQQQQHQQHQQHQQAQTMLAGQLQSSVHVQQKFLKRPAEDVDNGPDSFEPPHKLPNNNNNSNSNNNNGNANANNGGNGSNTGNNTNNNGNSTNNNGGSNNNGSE
T3 sequence (P28159 98-523): as the sequence (P28159 98-523, chain 1 of 3) above

B1: 1xSPS EMSA probe (dsDNA)
DNA 1: GCTACGTGGGAAAGGAGCAAACTGCGTTTCCCACGTTCGTAGTGCGGGCGTGGCT
DNA 2: AGCCACGCCCGCACTACGAACGTGGGAAACGCAGTTTGCTCCTTTCCCACGTAGC
binds: [1] | [2] | [3] | [4]

B2: 2xCSL EMSA probe (dsDNA)
DNA 1: CGAACGTGGGAAACCTAGGCTAGAGGCACCGTGGGAAACTAGTGCGGGCGTGGCT
DNA 2: AGCCACGCCCGCACTAGTTTCCCACGGTGCCTCTAGCCTAGGTTTCCCACGTTCG
binds: [5] | [6] | [7] | [8]
